Test results from publication doi:10.1101/2020.05.28.119206.

Biological target: recombinant medaka ZI-3 precursor (Y74-V420) (medaka)
Test: SEC-MALS

recombinant medaka ZI-3 precursor (Y74-V420) (domain or fragment)
stoichiometry N: 2
